Experimental data published in the RNAGym collection of RNA variant scans (doi:10.7554/elife.80360).

B1: Twister Ribozyme (parent)
chain: AACACUGCCAAUGCCGGUCCCAAGCCCGGAUAAAAGUGGAGGGGGCGG

Variants of: B1
Experiment: self-cleavage, relative activity (ratio to wild type); higher = more cleavage; co-transcriptional

In order of falling self-cleavage:
1. AACACUGCCAAUGCCGGUCUCAAGCCCGGAUAAAUGUGGAGGGGGCGG  1.08
2. AACACUGCCAAUGCCGGUCUCAAGCCCGGUUAAAAGUGGAGGGGGCGG  1.05
3. AACACUGCCAAUGCCGGUCUCAAGCCCGGACAAAAGUGGAGGGGGCGG  1.03
4. AACACUGCCAAUGCCGGUCUCAAGCCCGGAUAAAAGUGGAGGGAGCGG  1
5. AACACUGCCAAUGCCGGUCUCAAGCCCGGAUAGAAGUGGAGGGGGCGG  0.988
6. AACACUGCCAAUGCCGGUCUCAAGCCCGGAUAAAAGUGGAGGGGGCGU  0.963
7. AACACUGCCAAUGCCGGUCUCAAGCCCGGAUAAAAGUGGAGAGGGCGG  0.935
8. AACACUGCCAAUGCCGGUCUCAAGCCCGUAUAAAAGUGGAGGGGGCGG  0.921
9. AACACUGCCAAUGCCGGUCUCAAGCCCGGAUAAAAGUGGAGGGGGCGA  0.907
10. AACACUGCCAAUGCCGGUCUCAAGCCCGGAUACAAGUGGAGGGGGCGG  0.894
11. AACACUGCCAAUGCCGGUCUCAAGCCCGGAUAAAAGUGGAGGGUGCGG  0.893
12. AACACUGCCAAUGCCGGUCUCAAGCCCGGAUAAACGUGGAGGGGGCGG  0.881
13. AACACUGCCAAUGCCGGUCUCAAGCCCGGAGAAAAGUGGAGGGGGCGG  0.873
14. AACACUGCCAAUGCCGGUCUCAAGCCCGGAUAAAAGUCGAGGGGGCGG  0.841
15. AACACUGCCAAUGCCGGUCUCAAGCCCGGGUAAAAGUGGAGGGGGCGG  0.823
16. AACACUGCCAAUGCCGGUCUCAAGCCCGGAUAAAAGUGGAGGGCGCGG  0.816
17. AACACUGCCAAUGCCGGUCUCAAGCCCAGAUAAAAGUGGAGGGGGCGG  0.809
18. AACACUGCCAAUGCCGGUCUCAAGCCCGGAUAAAAGUAGAGGGGGCGG  0.802
19. AACACUGCCAAUGCCGGUCUCAAGCCCGGAUAAAAGUGGAGGGGUCGG  0.802
20. AACACUGCCAAUGCCGGUCGCAAGCCCGGAUAAAAGUGGAGCGGGCGG  0.791
21. AACACUGCCAAUGCCGGUCUCAAGCCCCGAUAAAAGUGGAGGGGGCGG  0.774
22. AACACUGCCAAUGCCGGUCUCAAGCCUGGAUAAAAGUGGAGGGGGCGG  0.708
23. AACACUGCCAAUGCCGGUCUCAAGCCCGGAUAAAAGUGGAGGGGGCUG  0.564
24. AACACUGCCAAUGCCGGUCUCAAGUCCGGAUAAAAGUGGAGGGGGCGG  0.545
25. AACACUGCCAAUGCCGGUCUCUAGCCCGGAUAAAAGUGGAGGGGGCGG  0.543
26. AACACUGCCAAUGCCGGUCUCAAGCCCGGCUAAAAGUGGAGGGGGCGG  0.533
27. AACACUGCCAAUGCCGGUCUCAAGCCCGGAUAAAAGAGGAGGGGGCGG  0.474
28. AACACUGCCAAUGCCGGUCUCAAGCCCGGAUAAAAGUGGAGUGGGCGG  0.399
29. AACACUGCCAAUGCCGGUCGCAAGCCCGGAUAAAAGUGGAGUGGGCGG  0.386
30. AACACUGCCAAUGCCGGUCUCAAGCCCGCAUAAAAGUGGAGGGGGCGG  0.305
31. AACACUGCCAAUGCCGGUCUCAAGCCCGGAUAAAAGUGAAGGGGGCGG  0.288
32. AACACUGCCAAUGCCGGUCUCAAGCCCGGAUAAAAAUGGAGGGGGCGG  0.216
33. AACACUGCCAAUGCCGGUCUCAAGCCCGGAUAAAAGCGGAGGGGGCGG  0.192
34. AACACUGCCAAUGCCGGUCGCAAGCCCGAAUAAAAGUGGAGGGGGCGG  0.189
35. AACACUGCCAAUGCCGGUCUCAAGCCCGGAUAAAAGUGGAGGAGGCGG  0.177
36. AACACUGCCAAUGCCGGUCCAAAGCCCGGAUAAAAGUGGAGGGGGGGG  0.173
37. AACACUGCCAAUGCCGGUCUCAAGCCAGGAUAAAAGUGGAGGGGGCGG  0.171
38. AACACUGCCAAUGCCGGUCGCAAGCCCCGAUAAAAGUGGAGGGGGCGG  0.171
39. AACACUGCCAAUGCCGGUCUCAUGCCCGGAUAAAAGUGGAGGGGGCGG  0.17
40. AACACUGCCAAUGCCGGUCGCAAGCCCGGUUAAAAGUGGAGGGGGCGG  0.165
41. AACACUGCCAAUGCCGGUCUCAAGCCCGGAUAAAAGUGGAGGGGGCCG  0.165
42. AACACUGCCAAUGCCGGUCUCAAGCCCGGAUAAAAGUGGGGGGGGCGG  0.149
43. AACACUGCCAAUGCCGGUCUCAAGCCCGGAUAAAAGUGGAGGUGGCGG  0.146
44. AACACUGCCAAUGCCGGUCGCAAGCCCGUAUAAAAGUGGAGGGGGCGG  0.146
45. AACACUGCCAAUGCCGGUCGCAAGCCCAGAUAAAAGUGGAGGGGGCGG  0.141
46. AACACUGCCAAUGCCGGUCUCAAGCCCGGAUAAAAGUGGAUGGGGCGG  0.141
47. AACACUGCCAAUGCCGGUCGCAAGCCCGGAUAAACGUGGAGGGGGCGG  0.14
48. AACACUGCCAAUGCCGGUCGCAAGCCCGGAUAAAAGUGGAGGGGCCGG  0.136
49. AACACUGCCAAUGCCGGUCGCAAGCCCGGAUAUAAGUGGAGGGGGCGG  0.13
50. AACACUGCCAAUGCCGGUCCAAAGCCCGGAUAAAAGUGGAGGGGGCGG  0.13
51. AACACUGCCAAUGCCGGUCCAAAGCCCGGAUAAAAGUGGAGGGGGUGG  0.13
52. AACACUGCCAAUGCCGGUCGCAAGCCCGGAUAAAAGUGGAGGGGGGGG  0.126
53. AACACUGCCAAUGCCGGUCUCAAGCCCGGAUAAAAGUGGUGGGGGCGG  0.125
54. AACACUGCCAAUGCCGGUCGCAAGCCCGGAUAAAAGUGGAGGGGGCGA  0.124
55. AACACUGCCAAUGCCGGUCUCAAGCCCGGAUAAAAGUGGAAGGGGCGG  0.124
56. AACACUGCCAAUGCCGGUCGCAACCCCGGAUAAAAGUGGAGGGGGCGG  0.123
57. AACACUGCCAAUGCCGGUCGCAAGCCCGGAUAAAAGUGGAGGGGGCGU  0.12
58. AACACUGCCAAUGCCGGUCUCGAGCCCGGAUAAAAGUGGAGGGGGCGG  0.119
59. AACACUGCCAAUGCCGGUCACAAGCCCGGAUAAAAGCGGAGGGGGCGG  0.111
60. AACACUGCCAAUGCCGGUCACAAGCCCGGAUAAAAGGGGAGGGGGCGG  0.109
61. AACACUGCCAAUGCCGGUCGCAAACCCGGAUAAAAGUGGAGGGGGCGG  0.109
62. AACACUGCCAAUGCCGGUCGCAAGCCCGGAUAAAAGUGGGGGGGGCGG  0.104
63. AACACUGCCAAUGCCGGUCGGAAGCCCGGAUAAAAGUGGAGGGGGCGG  0.103
64. AACACUGCCAAUGCCGGUCCAAAGCCCGGAUAAAAGUGGAGGGGGAGG  0.0995
65. AACACUGCCAAUGCCGGUCUCAAGCGCGGAUAAAAGUGGAGGGGGCGG  0.0973
66. AACACUGCCAAUGCCGGUCCAAAGCCCGGGUAAAAGUGGAGGGGGCGG  0.0944
67. AACACUGCCAAUGCCGGUCCAAAGCCGGGAUAAAAGUGGAGGGGGCGG  0.0914
68. AACACUGCCAAUGCCGGUCCAAACCCCGGAUAAAAGUGGAGGGGGCGG  0.0911
69. AACACUGCCAAUGCCGGUCCAAUGCCCGGAUAAAAGUGGAGGGGGCGG  0.091
70. AACACUGCCAAUGCCGGUCCAAAGCCCGGAUAAAAGUGGCGGGGGCGG  0.0907
71. AACACUGCCAAUGCCGGUCCAAAGCCUGGAUAAAAGUGGAGGGGGCGG  0.0904
72. AACACUGCCAAUGCCGGUCGCAAGCCCGGAUGAAAGUGGAGGGGGCGG  0.0903
73. AACACUGCCAAUGCCGGUCGCAAUCCCGGAUAAAAGUGGAGGGGGCGG  0.0899
74. AACACUGCCAAUGCCGGUCUCAAGGCCGGAUAAAAGUGGAGGGGGCGG  0.088
75. AACACUGCCAAUGCCGGUCGCAAGCCCGGAUAAAAGUGGAGGGCGCGG  0.0871
76. AACACUGCCAAUGCCGGUCGCAAGCCCGGAUAAAAAUGGAGGGGGCGG  0.0839
77. AACACUGCCAAUGCCGGUCGCAAGCCCGGAUAACAGUGGAGGGGGCGG  0.0838
78. AACACUGCCAAUGCCGGUCCAAAGCCCGGAUAAACGUGGAGGGGGCGG  0.083
79. AACACUGCCAAUGCCGGUCGCAAGCCCGGAUAAAAGUGGAGAGGGCGG  0.083
80. AACACUGCCAAUGCCGGUCUCAAGCCGGGAUAAAAGUGGAGGGGGCGG  0.0816
81. AACACUGCCAAUGCCGGUCUCAAACCCGGAUAAAAGUGGAGGGGGCGG  0.0805
82. AACACUGCCAAUGCCGGUCCAAAGCCCGGAUAAAAGUGGUGGGGGCGG  0.0782
83. AACACUGCCAAUGCCGGUCGCAAGCCCGGAUCAAAGUGGAGGGGGCGG  0.078
84. AACACUGCCAAUGCCGGUCACAAGCCCGGAUAAAAGAGGAGGGGGCGG  0.0773
85. AACACUGCCAAUGCCGGUCCAAAACCCGGAUAAAAGUGGAGGGGGCGG  0.0758
86. AACACUGCCAAUGCCGGUCGCAAGCCCGGAUAGAAGUGGAGGGGGCGG  0.0756
87. AACACUGCCAAUGCCGGUCGCAAGCCCGGAUAAAAGUGGACGGGGCGG  0.0754
88. AACACUGCCAAUGCCGGUCGAAAGCCCGGAUAAAAGUGGAGGGGGCGG  0.0754
89. AACACUGCCAAUGCCGGUCGCAAGCCCGGAUAAAAGUGGAGGAGGCGG  0.0749
90. AACACUGCCAAUGCCGGUCCAAAGCCCGGAUAAAGGUGGAGGGGGCGG  0.0738
91. AACACUGCCAAUGCCGGUCCAAAGCCCGGAUGAAAGUGGAGGGGGCGG  0.0702
92. AACACUGCCAAUGCCGGUCCAAAGCUCGGAUAAAAGUGGAGGGGGCGG  0.07
93. AACACUGCCAAUGCCGGUCUCAAGCCCGGAUAACAGUGGAGGGGGCGG  0.0697
94. AACACUGCCAAUGCCGGUCGCAAGUCCGGAUAAAAGUGGAGGGGGCGG  0.0692
95. AACACUGCCAAUGCCGGUCCAAAGCACGGAUAAAAGUGGAGGGGGCGG  0.069
96. AACACUGCCAAUGCCGGUCCAAAGCCAGGAUAAAAGUGGAGGGGGCGG  0.0685
97. AACACUGCCAAUGCCGGUCGCAAGCCCGGAUAAAAGGGGAGGGGGCGG  0.0665
98. AACACUGCCAAUGCCGGUCGCAAGCCCGGAUACAAGUGGAGGGGGCGG  0.0661
99. AACACUGCCAAUGCCGGUCCAAAGCCCGGAUAACAGUGGAGGGGGCGG  0.0648
100. AACACUGCCAAUGCCGGUCCAUAGCCCGGAUAAAAGUGGAGGGGGCGG  0.0641
101. AACACUGCCAAUGCCGGUCGCAAGCCCGGAUAAAAGUGGAAGGGGCGG  0.0636
102. AACACUGCCAAUGCCGGUCGCAAGCCCGGCUAAAAGUGGAGGGGGCGG  0.0614
103. AACACUGCCAAUGCCGGUCGCGAGCCCGGAUAAAAGUGGAGGGGGCGG  0.0602
104. AACACUGCCAAUGCCGGUCGCAAGCUCGGAUAAAAGUGGAGGGGGCGG  0.0527
105. AACACUGCCAAUGCCGGUCGCAAGACCGGAUAAAAGUGGAGGGGGCGG  0.0525
106. AACACUGCCAAUGCCGGUCGCAAGCCCGGAUUAAAGUGGAGGGGGCGG  0.0524
107. AACACUGCCAAUGCCGGUCCAAAGCCCGGAUAAGAGUGGAGGGGGCGG  0.052
108. AACACUGCCAAUGCCGGUCGCAGGCCCGGAUAAAAGUGGAGGGGGCGG  0.0348
